Key:
Test in all cases: cell-based or functional assay
[1] = target: HIV-1 Env of isolate MGRM-Chronic-B-003 (HIV-1)
[2] = target: HIV-1 Env of isolate MGRM-Chronic-B-023 (HIV-1)
[3] = target: HIV-1 Env of isolate SF162 (HIV-1) (UniProt P19550)
[4] = target: HIV-1 Env of isolate MG RM-C-024 (HIV-1)
[5] = target: HIV-1 Env of isolate THR0.18 (HIV-1)
[6] = target: HIV-1 Env of isolate MGRM-Chronic-B-001 (HIV-1)
[7] = target: HIV-1 Env of isolate QH0692.42 (HIV-1)
[8] = target: HIV-1 Env of isolate MG RM-C-027 (HIV-1)
[9] = target: HIV-1 Env of isolate PVO.4 (HIV-1)
[10] = target: HIV-1 Env of isolate MGRM-Chronic-B-010 (HIV-1)
[11] = target: HIV-1 Env of isolate MG RM-C-026 (HIV-1)
[12] = target: HIV-1 Env of isolate MGRM-Chronic-B-020 (HIV-1)
[13] = target: HIV-1 Env of isolate MG RM-C-020 (HIV-1)
[14] = target: HIV-1 Env of isolate VLGCB3 (HIV-1)
[15] = target: HIV-1 Env of isolate 93IN905 (HIV-1)
[16] = target: HIV-1 Env of isolate APV_17 (HIV-1)
[17] = target: HIV-1 Env of isolate MG RM-C-022 (HIV-1)
[18] = target: HIV-1 Env of isolate MGRM-Chronic-B-017 (HIV-1)
[19] = target: HIV-1 Env of isolate MG RM-C-025 (HIV-1)
[20] = target: HIV-1 Env of isolate APV_13 (HIV-1)
[21] = target: HIV-1 Env of isolate NL43 (HIV-1)
[22] = target: HIV-1 Env of isolate JRCSF (HIV-1) (UniProt P20871)
[23] = target: HIV-1 Env of isolate MGRM-Chronic-B-011 (HIV-1)
[24] = target: HIV-1 Env of isolate CAAN.A2 (HIV-1)
[25] = target: HIV-1 Env of isolate 93TH305 (HIV-1)
[26] = target: HIV-1 Env of isolate 6535.3 (HIV-1)
[27] = target: HIV-1 Env of isolate SC422661.8 (HIV-1)
[28] = target: HIV-1 Env of isolate 92 BR 020 (HIV-1)
[29] = target: HIV-1 Env of isolate MGRM-Chronic-B-008 (HIV-1)
[30] = target: HIV-1 Env of isolate JRFL (HIV-1)
[31] = target: HIV-1 Env of isolate MG RM-C-028 (HIV-1)
[32] = target: HIV-1 Env of isolate TRJ04551.58 (HIV-1)
[33] = target: HIV-1 Env of isolate MGRM-Chronic-B-024 (HIV-1)
[34] = target: HIV-1 Env of isolate 98IN022 (HIV-1)
[35] = target: HIV-1 Env of isolate TRO.11 (HIV-1)
[36] = target: HIV-1 Env of isolate MGRM-Chronic-B-004 (HIV-1)
[37] = target: HIV-1 Env of isolate 97ZA012 (HIV-1)
[38] = target: HIV-1 Env of isolate 93MW959 (HIV-1)
[39] = target: HIV-1 Env of isolate MGRM-Chronic-B-002 (HIV-1)
[40] = target: HIV-1 Env of isolate MGRM-Chronic-B-012 (HIV-1)
[41] = target: HIV-1 Env of isolate MGRM-Chronic-B-018 (HIV-1)
[42] = target: HIV-1 Env of isolate MG RM-C-023 (HIV-1)
[43] = target: HIV-1 Env of isolate APV_6 (HIV-1)

## PGT-121 monoclonal antibody (4838_L06; 4873_E03)
[1]
  neutralization IC50: 0.011 µg/mL
[2]
  neutralization IC50: 0.005 µg/mL
[3]
  neutralization IC50: 0.005 µg/mL
[4]
  neutralization IC50: 0.052 µg/mL
[5]
  neutralization IC50: > 50 µg/mL
[6]
  neutralization IC50: 0.102 µg/mL
[7]
  neutralization IC50: 0.823 µg/mL
[8]
  neutralization IC50: 0.011 µg/mL
[9]
  neutralization IC50: 0.137 µg/mL
[10]
  neutralization IC50: 0.014 µg/mL
[11]
  neutralization IC50: 0.002 µg/mL
[12]
  neutralization IC50: 0.004 µg/mL
[13]
  neutralization IC50: > 50 µg/mL
[14]
  neutralization IC50: 0.005 µg/mL
[15]
  neutralization IC50: 0.005 µg/mL
[16]
  neutralization IC50: 0.066 µg/mL
[17]
  neutralization IC50: 0.015 µg/mL
[18]
  neutralization IC50: > 50 µg/mL
[19]
  neutralization IC50: 46.8 µg/mL
[20]
  neutralization IC50: 0.251 µg/mL
[21]
  neutralization IC50: > 50 µg/mL
[22]
  neutralization IC50: 0.027 µg/mL
[23]
  neutralization IC50: > 50 µg/mL
[24]
  neutralization IC50: 0.011 µg/mL
[25]
  neutralization IC50: 0.007 µg/mL
[26]
  neutralization IC50: 0.005 µg/mL
[27]
  neutralization IC50: 0.098 µg/mL
[28]
  neutralization IC50: 0.014 µg/mL
[29]
  neutralization IC50: 0.007 µg/mL
[30]
  neutralization IC50: 0.021 µg/mL
[31]
  neutralization IC50: 0.472 µg/mL
[32]
  neutralization IC50: 7.09 µg/mL
[33]
  neutralization IC50: 0.195 µg/mL
[34]
  neutralization IC50: 0.007 µg/mL
[35]
  neutralization IC50: 0.008 µg/mL
[36]
  neutralization IC50: 0.009 µg/mL
[37]
  neutralization IC50: 0.002 µg/mL
[38]
  neutralization IC50: 0.013 µg/mL
[39]
  neutralization IC50: 0.386 µg/mL
[40]
  neutralization IC50: 0.036 µg/mL
[41]
  neutralization IC50: > 50 µg/mL
[42]
  neutralization IC50: 0.017 µg/mL

## PGT-122 monoclonal antibody (4877_D15)
[1]
  neutralization IC50: 0.008 µg/mL
[2]
  neutralization IC50: 0.01 µg/mL
[3]
  neutralization IC50: 0.009 µg/mL
[4]
  neutralization IC50: 0.102 µg/mL
[5]
  neutralization IC50: > 50 µg/mL
[6]
  neutralization IC50: 0.138 µg/mL
[7]
  neutralization IC50: 0.493 µg/mL
[8]
  neutralization IC50: 0.039 µg/mL
[9]
  neutralization IC50: 0.689 µg/mL
[10]
  neutralization IC50: 0.018 µg/mL
[11]
  neutralization IC50: 0.006 µg/mL
[12]
  neutralization IC50: 0.005 µg/mL
[13]
  neutralization IC50: 14 µg/mL
[14]
  neutralization IC50: 0.008 µg/mL
[15]
  neutralization IC50: 0.013 µg/mL
[16]
  neutralization IC50: 0.25 µg/mL
[17]
  neutralization IC50: 0.012 µg/mL
[18]
  neutralization IC50: 5.66 µg/mL
[19]
  neutralization IC50: 8.69 µg/mL
[43]
  neutralization IC50: 0.019 µg/mL
[20]
  neutralization IC50: 0.778 µg/mL
[21]
  neutralization IC50: > 50 µg/mL
[22]
  neutralization IC50: 0.057 µg/mL
[23]
  neutralization IC50: > 50 µg/mL
[24]
  neutralization IC50: 0.011 µg/mL
[25]
  neutralization IC50: 0.013 µg/mL
[26]
  neutralization IC50: 0.006 µg/mL
[27]
  neutralization IC50: 0.103 µg/mL
[28]
  neutralization IC50: 0.021 µg/mL
[29]
  neutralization IC50: 0.017 µg/mL
[30]
  neutralization IC50: 0.026 µg/mL
[31]
  neutralization IC50: 2.22 µg/mL
[32]
  neutralization IC50: > 50 µg/mL
[33]
  neutralization IC50: 2.31 µg/mL
[34]
  neutralization IC50: 0.032 µg/mL
[35]
  neutralization IC50: 0.011 µg/mL
[36]
  neutralization IC50: 0.008 µg/mL
[37]
  neutralization IC50: 0.004 µg/mL
[38]
  neutralization IC50: 0.016 µg/mL
[39]
  neutralization IC50: 1.8 µg/mL
[40]
  neutralization IC50: 0.066 µg/mL
[41]
  neutralization IC50: > 50 µg/mL
[42]
  neutralization IC50: 0.027 µg/mL

— US20160264649A1
